Consider two molecules from patent US20260275304A1, “METHODS AND COMPOSITIONS FOR GLYPHOSATE TOLERANCE IN PLANTS” (Monsanto Technology LLC, priority 2023, published 2026).

One data set deals with maize EPSPS. Kind of data set: In vitro characterization of EPSPS mutants (EnzChek phosphate assay, Michaelis-Menten kinetics, glyphosate Ki). The conditions noted are these: for Km: apparent Km, mean±S.E.; for Ki: inhibitory constant for glyphosate, no unit in table (around 800 μM). The data set is classed as biochemical, Zea mays. Here is the method:
Activity was determined by quantifying release of Pi, coupled to a reaction with MESG, catalyzed by purine-nucleoside phosphorylase using the EnzChek Phosphate Assay Kit from Invitrogen, first published in 1992. 95 μL of master mix was added to each well and 5 μL of the varied substrate dilutions were multi-channeled into the plate to start the reaction simultaneously for all conditions. Absorbance measurements at 360 nm were taken every 10 seconds for 3 minutes to capture the initial reaction rate of each condition. Varying levels of substrate were added to generate the resulting reaction rate curves. Each condition was performed in triplicate. Ki was determined as previously described (Lu, et al., Protein Engineering, Design and Selection 30:395-399 (2017)). Data was fit to the Michaelis-Menten kinetics equation and were also validated through GraphPad Prism's built-in function for each variant.
For protein expression of EPSPS and its variants, E. coli BL21 (DE3) was used as the expression host. Electrocompetent cells were transformed with the corresponding constructed plasmids, pET28a (+) with selected EPSPS variants (wild-type, TIPS, TIPS P126S, TIPS K296R, TIPS P126S/K296R). A single colony of an E. coli BL21 (DE3) strain harboring one of the constructed plasmids was inoculated into 2 mL of Luria Bertani broth (LB) medium with 50 μg/mL kanamycin and grown overnight at 37° C./225 rpm. The overnight-grown culture (using 100 μl) was scaled up with 2000-fold dilution in a 500-mL triple baffled shake flask and grown to a cell density of 0.8 (optical density [OD600]) at 37° C./225 rpm. Protein expression was induced by adding 0.2 mM of isopropyl β-D-1-thiogalactopyranoside (IPTG) and cells were cultured for 24 hours at 20° C./225 rpm. The induced cell culture was harvested by centrifugation at 4,000 g and 4° C. for 20 mins. Cell pellets were then resuspended in 25 mL of Dulbecco's Phosphate Buffered Saline (DPBS) (Thermo Fisher Scientific, Waltham, MA) pH 7.0 buffer containing 10 mM imidazole, 1 g/L of lysozyme and 5 μl of Pierce™ Universal Nuclease (Thermo Fisher Scientific, Waltham, MA), followed by mixing on a rocker for 30 mins at 4° C. Subsequently, cells were lysed by sonication and the resulting cell lysate was centrifuged at 14,000 g and 4° C. for 20 minutes to obtain the supernatant that contains soluble proteins. Target proteins from the supernatant was purified by HisPur™ Ni-NTA Resin (Thermo Fisher Scientific, Waltham, MA) according to the manufacturer's instruction.
The eluate was dialyzed with 3C protease added to the dialysis cassette, into the appropriate buffer followed by size-exclusion fast protein liquid chromatography. All EPSP synthase variants were stored in 20 mM Tris (pH 7.5), 100 mM NaCl and 10 mM β-mercaptoethanol. The protein concentration was then determined by using the Coomassie Plus Bradford Assay kit (Thermo Fisher Scientific) and the Infinite M200 PRO microplate reader (Tecan, Männedorf, Switzerland) to measure the absorbance of assay mixtures. The presence and purity of the purified proteins were assessed by sodium dodecyl sulfate-polyacrylamide gel electrophoresis.
Enzymatic activity, including inhibitory constant Ki, for EPSPS and TIPS closely corroborate values determined by previous reports. Mutations P126S and K296R have beneficial effects on their own to both Km and kcat and are additive when combined, similar to the observations of the in vivo growth characterization. Furthermore, the high Ki is maintained for each of the variants, showing similar or slightly higher values of around 800 μM compared to the starting point, TIPS. These findings confirm the phenotype endowed by the dual-trait selection pressure employed during the directed evolution campaigns. Kinetic parameters of maize EPSPS with mutations discovered through directed evolution. In Table 4, initial velocity data were measured in triplicate and fit to the Michaelis-Menten equation. […]

The test system of data set [1] is S. cerevisiae strain sKR-024. In words: Growth of synthetic yeast strain sKR-024 expressing EPSPS variants with or without glyphosate. It counts as cell-based, Saccharomyces cerevisiae. The conditions noted are these: for growth in yeast minimal media without glyphosate: 0 mM glyphosate. As to the method:
EPSPS variants were re-cloned into a clean p416-Core1p backbone and transformed into strain sKR-024 as described above. Colonies were then picked in triplicate into YSC-Ura-Leu and outgrown for 2 days at 30° C. Cultures were then diluted back to OD 0.001 in yeast minimal media (YMM) containing varying amounts of glyphosate as indicated. Growth rate measurements were then obtained using an Infinite M200 PRO microplate reader (Tecan, Männedorf, Switzerland) with incubation at 30° C. for 72-120 hours depending on growth rate of selected variants.
To determine if this system could further corroborate observations from previous literature, the well-studied EPSPS mutants T102I and P106S, and the combined double mutant TIPS (T102I-P106S) were generated and complemented into this yeast system. These mutations were reported to result in varying degrees of glyphosate resistance.
Having established low copy number and weak promoter expression of EPSPS variants, it was sought to recharacterize phenotypes under field conditions that are used in planta. […] It has been reported previously that under standard glyphosate foliar application, 0.3 mM or more of glyphosate (gly) can accumulate in a plant's root nodules and meristems. […] These trends support reported literature of mutants P106S and TIPS grown in various plant hosts. As a result, the present synthetic yeast model system closely resembles in planta observations and thus can be used to select for dual-trait EPSPS variants aimed at both enzymatic efficiency and glyphosate resistance.
Select mutants isolated from the final directed evolution campaign with the improved selection strategy were further evaluated in assorted glyphosate concentrations to determine growth characteristics. Mutants isolated from an EPSPS background were evaluated in media containing 0 mM and 0.25 mM glyphosate with the latter being the concentration at which wild-type EPSPS cannot grow after 100 hours. […] The non-glyphosate mono selection highlighted in blue represents mutations resulting from 5 subcultures in 0 mM glyphosate. The low glyphosate dual selection highlighted in light green represents mutants resulting from an additional subculture into 0.5 mM glyphosate. Lastly, the high glyphosate dual selection highlighted in dark green represent mutations isolated after subcultures in increasing levels of glyphosate, up to 10 mM.

The mark [2] stands for this setting: PEP at saturation (roughly 10 times its Km), read-out: Km (S3P).
The mark [3] stands for this setting: S3P at saturation (roughly 10 times its Km), read-out: Km (PEP).

Where a chain is given by its changes, count along the chain named. In names and notes the source's numbering stands. Where two headings read alike, the source gives them in different places.

B1: TIPS: Zea mays EPSPS double mutant T102I and P106S, SEQ ID NO:9; positive control (protein)
chain: AGAEEIVLQPIKEISGTVKLPGSKSLSNRILLLAALSEGTTVVDNLLNSEDVHYMLGALRTLGLSVEADKAAKRAVVVGCGGKFPVEDSKEEVQLFLGNAGIAMRSLTAAVTAAGGNATYVLDGVPRMRERPIGDLVVGLKQLGADVDCFLGTDCPPVRVNGIGGLPGGKVKLSGSISSQYLSALLMAAPLALGDVEIEIIDKLISIPYVEMTLRLMERFGVKAEHSDSWDRFYIKGGQKYKSPKNAYVEGDASSASYFLAGAAITGGTVTVEGCGTTSLQGDVKFAEVLEMMGAKVTWTETSVTVTGPPREPFGRKHLKAIDVNMNKMPDVAMTLAVVALFADGPTAIRDVASWRVKETERMVAIRTELTKLGASVEEGPDYCIITPPEKLNVTAIDTYDDHRMAMAFSLAACAEVPVAIRDPGCTRKTFPDYFDVLSTFVKN
modifications: Zea mays
notes: positive control
For orientation: Km means the substrate concentration at which the rate is half of its maximum. The term Ki denotes the dissociation constant of the complex between target and ligand, obtained from inhibition or displacement. High values mean weaker binding, low ones tighter binding. For the molecule B1, the figures for the Km in the data set with maize EPSPS (setting [2]) and in the data set with maize EPSPS (setting [3]) were 33.2 µM and 26.2 µM, respectively. The same molecule displayed a Ki on maize EPSPS of 739 µM. The “growth in yeast minimal media without glyphosate” value in data set [1] is reported as “grew at a significant deficit”. Besides, in data set [1] (0.5 mM glyphosate, Core1p promoter), the growth in glyphosate result is “grew well in the presence of glyphosate”. In addition, the “order of glyphosate tolerance” value in data set [1] (5 mM glyphosate, FIG. 1 Panel C) is on record as “P106S<T102I<TIPS”.

B2: TIPS-P126S-K296R: maize EPSPS variant, probably SEQ ID NO:11 (protein)
chain: B1 chain with P126S, K296R
modifications: Zea mays
In the case of B2, the figures for the Michaelis constant (Km) with maize EPSPS (setting [2]) and in the data set with maize EPSPS (setting [3]) were 16.8 µM and 15.5 µM, respectively. In the data set with maize EPSPS (higher than evolutionary starting point TIPS), the “enzymatic efficiency relative to TIPS” value is given as “roughly 2.5 fold”. Further, the Ki on maize EPSPS worked out at 871 µM. In data set [1], the “growth in yeast minimal media without glyphosate” value is “performed very similarly to wild-type EPSPS”. In addition, the “growth across glyphosate levels” value in data set [1] (0.05 mM to 5 mM glyphosate) is listed as “performed extremely well in every condition of glyphosate”.
